Experiment: yeast display, Sf9 membrane polyspecificity reagent, FACS + sequencing; frameworks hold sequencing errors
In short: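 Nanobodies from a synthetic yeast display library (Saccharomyces cerevisiae BJ5465), induced 36–48 hours with galactose, were stained 1 hour at 4 °C with 10% biotinylated, detergent-solubilized Sf9 membrane reagent, enriched on streptavidin microbeads, then FACS-sorted. Anti-HA (expression) and streptavidin (reagent binding) fluorescence set low and high (top ~1%) gates. Polyreactivity labels come from the gate of origin. Genes were colony-PCR amplified, MiSeq 2 × 250 sequenced and filtered by CDR length.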

QVQLVESGGGLVQAGGSLRLSCAASGYTFYRYAMGWYRQAPGKERELVAGISRDGGSTYYADSVKGRFTISRDNAKNTVYLQMNSLKPEDTAVYYCAADKTRYRLGRDYWGQGTQVTVSS
polyreactivity (PSR sort gate): low polyreactivity

QVQLVESGGGLVQAGGSLRLSCAASGYTFYRYTMGWYRQAPGKEREVVAAINSGGSTNYADSLKGRFTISRDNAKNTVYLQMNSLKPEDTAVYYCARRYQTWPRWYDYWGQGTQVTVSS
polyreactivity (PSR sort gate): high polyreactivity

QVQLVESGGGLVQAGGSLRLSCAASGYTFYVYTMGWYRQAPGKERELVAAISGSGTSTYYADSVKGRFTISRDNAKNTVYLQMNSLKPEDTAVYYCAAEDYSSDVYSYDYWGQGTQVTVSS
polyreactivity (PSR sort gate): low polyreactivity

QVQLVESGGGLVQAGGSLRLSCAASGYTFYWNVMGWYRQAPGKERELVAVIDWSGGSTHYADSVKGRFTISRDNAKNTVYLQMNSLKPEDTAVYYCAAVDIRLEWDYWFQPTYDYWGQGTQVTVSS
polyreactivity (PSR sort gate): low polyreactivity

QVQLVESGGGLVQAGGSLRLSCAASGYTFYYNAMGWYIQAPGKERELVARISRSGGSTYADSVKGRFTISRDNAKNTVYLQMNSLKPEDTAVYYCNADAYGTPEFTSYAVRYDYWGQGTQVTVSS
polyreactivity (PSR sort gate): low polyreactivity

QVQLVESGGGLVQAGGSLRLSCAASGYTIIQYAMGWYRQAPGKERELVAGMTWSGGSKYADSVKGRFTISRDNAKNTVYLQMNSLNPEDTAVYYCAAVPYSYTYVYLRHYDYWGQGTQVSVSS
polyreactivity (PSR sort gate): low polyreactivity

QVQLVESGGGLVQAGGSLRLSCAASGYTIRYYAMGSYRQAPGKERELVADISYSGGRTYYADSVKGRITISRDNAKNTVDLLMNSLKPEDSAVYYSNARGGRRAYNYGYWGQGTQVTVSS
polyreactivity (PSR sort gate): high polyreactivity

QVQLVESGGGLVQAGGSLRLSCAASGYTIWHYAMGWYRQAPGKEREFVATISSGGSTYYADSVKGRFTISRDNAKNTVYLQMNSLKPEDTAVYYCAVDIWGGEGYDSWGQGTQVTVSS
polyreactivity (PSR sort gate): low polyreactivity

QVQLVESGGGLVQAGGSLRLSCAASGYTIYVNAMGRYRQAPAKQRQLVASNRRDSTYYADSVKGRFTISRDNAKNTVYLQMNSLKPEDSAVYYCAVDWYPWLYDGRTYEYWGQGTQVTVSS
polyreactivity (PSR sort gate): low polyreactivity

QVQLVESGGGLVQAGGSLRLSCAASGYTLNIYGMGWYRQATGKERELVAAISRGGSTNYADSVKGRFTISRDNAKNTVYLQMNSLKPEDTAVYYCAKVYNYRSVRYYYWGQGTQVTVSS
polyreactivity (PSR sort gate): high polyreactivity

QVQLVESGGGLVQAGGSLRLSCAASGYTLRIYAMGWYRQAPGKERELVAAISRSGGRTFYADSVKGRFTISRDNAKNTVYLQMISLTPEDTAVFYCAAVSAYYYRRTYEYWGQGTQVTVSS
polyreactivity (PSR sort gate): high polyreactivity

QVQLVESGGGLVQAGGSLRLSCAASGYTLYLNAMGWYRQAPGKERELFARISGGGSTNYADSVKGRFTISRDNAKNTVYLQMNSLKPEDTAVYYCAATIFAYGYRSFKLDYWGQGTQVTVSS
polyreactivity (PSR sort gate): low polyreactivity

QVQLVESGGGLVQAGGSLRLSCAASISSSNAMGWYRQAPGKERELVAAIRWSGTSTYYADSVKGRFTISRDNANNTVYLQMNSLKPEETAVYYCAARYVRVGYDYWGQGTQVTVSS
polyreactivity (PSR sort gate): high polyreactivity

QVQLVESGGGLVQAGGSLRLSCAASMGWYRQAPGKERELVAITRTTRTYYADSVKGRFTISRDNAKNTVYLQMNSLKPEDTAVYYCAAPNGPSPYWYNYWGQGTQVTVSS
polyreactivity (PSR sort gate): low polyreactivity

QVQLVESGGGLVQAGGSLRLSCAASRFIFGAYTMGWYRQAPGKERELVAAISWSGDSTYYADSVKGRFTISRDNAKNTVYLQMNSLKPEDTAVYYCAAVWYWSGFDYWGQGTQVTVSS
polyreactivity (PSR sort gate): high polyreactivity

QVQLVESGGGLVQAGGSLRLSCAASRFIFSFYVMGWYRQAPAKETELVAAISTSGASTYYADSVKGRFTITRDNAKKTVYLQMNSLKPEDTAVYYCNVGYRYGGYNYWGQGTQVTVSW
polyreactivity (PSR sort gate): high polyreactivity

QVQLVESGGGLVQAGGSLRLSCAASRFIFSSYVMGRYRQAPGKERELVAASRSGGSTNYADSVKGRFTISRDNAKNTVYLQMNSLKPEDTAVYYCAARGRLGQGYYYWGQGTLVTVSS
polyreactivity (PSR sort gate): low polyreactivity

QVQLVESGGGLVQAGGSLRLSCAASRFIFWPYAMGWYRPAPGKERELVAAITTGGSTNYADSVKGRFTISRDNAKNTVYFQMNSLKPEDTAVYYCAKGYYFGYYEFVYWGQGTQVTVSS
polyreactivity (PSR sort gate): high polyreactivity

QVQLVESGGGLVQAGGSLRLSCAASRFTFSGYAMGWYRQAPGKERELVATISSSGSTYADSVKGRFTISRDNAKNTVYLQMNSLKPEDTAVYYCAKRVPFFDYWGQGTQVTVSS
polyreactivity (PSR sort gate): low polyreactivity

QVQLVESGGGLVQAGGSLRLSCAASRFTFVHYAMGWYRQAPGKERELVAAISRSGGSTYCADSVKGRFTISRDNAKNTVYLQMNSLKPEDTAVYYCAASRGSYEVVYWGQGTQVTVSS
polyreactivity (PSR sort gate): high polyreactivity

QVQLVESGGGLVQAGGSLRLSCAASRFYTMGWYIPAPGKERELVAAISWSGGDTYYADSVKGRYTISRDNAKNTVYLQMNSLKQEDTAVYYCPKKTIGSYVHEPYYYWGQGNQVTVSS
polyreactivity (PSR sort gate): low polyreactivity

QVQLVESGGGLVQAGGSLRLSCAASRIIFWFYAMGWYRQAPGKERELVAAISGDGDSTYYADSVKGRFTISRDNAKNTVYLQMNSLIPEDTAVYYCAAEWDPVFATDEDDYWGQGTQVTVSS
polyreactivity (PSR sort gate): low polyreactivity

QVQLVESGGGLVQAGGSLRLSCAASRRIFDVNSMGWYRQAPGKERELVAAISSGGNTKYADSVKGRFTISRDNAKNSVYLQMNSLKPEDTAVYYCIADGKAAGDYDYWGQGTQVTVSS
polyreactivity (PSR sort gate): low polyreactivity

QVQLVESGGGLVQAGGSLRLSCAASRRILRVYAMGWYRQAPGKERELVASISSGGSTNYADSVKGRFTISRDNAKNTVYFQMKSLKPEDTAVYYCNRRWVHTYDYWGQGTQVTVSS
polyreactivity (PSR sort gate): high polyreactivity

QVQLVESGGGLVQAGGSLRLSCAASRSIFRGYAMGWYRQAPVKETELVAAITQRAGSTYYADSVKGRFTISRDNAKNTVYLQMISLKPEDTAVYYCAADFYYAYYWGQGTQVTVSS
polyreactivity (PSR sort gate): low polyreactivity

QVQLVESGGGLVQAGGSLRLSCAASRSTSPAYAMGWYRQAPGKERELVAVITGSGASTYYADSVKGRFTISRDNAKNTVYLQMNSLKPEDTAVYYCAADVGFGVVFYDYWGQGTQVTVSS
polyreactivity (PSR sort gate): low polyreactivity

QVQLVESGGGLVQAGGSLRLSCAASRSTSYDYAMGWYRQAPGKERELVAAISGSSSTTYYADSVKGRFTISRDNAKNTVSLQMNSLKPEDTAVYYCNAVTTSGSGYGYWGQGTQVTVSS
polyreactivity (PSR sort gate): low polyreactivity

QVQLVESGGGLVQAGGSLRLSCAASRYTFTLYAMGWYRKAPGKEWELLAAISRSGGSTYYADSVKGRFTISRDNAKITVYLQMNSLKPEDTAVYYCAADKYFAWGYPSGLWYDYWGQGTQVTVSS
polyreactivity (PSR sort gate): high polyreactivity

QVQLVESGGGLVQAGGSLRLSCAASVFTFTHYAMGWYRQSAGKERELVAAISTSGVSTYYSDSVKGRFTISRDNAKNTVYLQMNSLKPEDTAVYYCAARRDGWFQWGYYYWGQGTQVTVSS
polyreactivity (PSR sort gate): low polyreactivity

QVQLVESGGGLVQAGGSLRLSCAASVFTFTRYVMGWYRQAPVKERELVAAISGSGGSTNYADSVKGRFTISRDNAKNTVYLQMNSLKPEDTVVYYCAARFVGSRYRFDYWGQRTQVTVSS
polyreactivity (PSR sort gate): high polyreactivity

QVQLVESGGGLVQAGGSLRLSCAASVFTIPRYAMGWYRQAPGKETELFAAITSGGSTYYADSVKGRFTISRDNAKNTVYLQMNSLKPEDTAVYYWASRAVWSSWGSRYDSWGHGTQVTVSS
polyreactivity (PSR sort gate): high polyreactivity

QVQLVESGGGLVQAGGSLRLSCAASVIIFYPYAMGWSRQAPGKEMELVAAITARSANTYYADSVKGRFTISRDNAKNTVYLQMNSLKPEDTAVYYCAAAIYSYRTPYYYWGQGTQVTVSS
polyreactivity (PSR sort gate): high polyreactivity

QVQLVESGGGLVQAGGSLRLSCAASVITSPYAMGWYRQAPGKERELVAAISWSGSSTYYADSVKGRFTISRDNAKNTVYLQINSLKPEDTAVYYCATLVSDSRSRRFGYEYWGQGSQVTVSS
polyreactivity (PSR sort gate): high polyreactivity

QVQLVESGGGLVQAGGSLRLSCAASVLTFYEYAMGWYRQAPGKERELVASISGRAASTDYADSVKGRFTISRDNAKNTVYLQMNSLKPEDTAVYYCAVGVVGDIDTDGYWGQGTQVTVSS
polyreactivity (PSR sort gate): low polyreactivity

QVQLVESGGGLVQAGGSLRLSCAASVNIFESYGMGWYRQAPGKERELVATINTSSGSTYYADSVKGRFTISRDNAKNTVYLQMNSLKPEDTAVYYCSAEWYPYPWGYGYSGQGTQVTVSS
polyreactivity (PSR sort gate): low polyreactivity

QVQLVESGGGLVQAGGSLRLSCAASVRIFAKYAMGWYRQAPGKERELVAAIRWRGGNTYYADSVKGRFTISRDNAKNTVYLQMNSLKPEDTAVYYCAAGTWLGRGYIGQVESWGQGTQVTVSS
polyreactivity (PSR sort gate): high polyreactivity

QVQLVESGGGLVQAGGSLRLSCAASVRIFGYARGWYRQAPGKERELVAAITSSGGRTYYADSVKGLFTISRDNAKNTVYLQMNSLKPEDTAVYYCAKDASVSYSTNFRYYYWGQGTQVTVSS
polyreactivity (PSR sort gate): high polyreactivity

QVQLVESGGGLVQAGGSLRLSCAASVRIFLWYAMGWYRQAPGKERELVAAITKSAGTTYYADSVKGRFTISRDNAKNTVYLQMNSLKPEDTAVYYCGAYYWLYAHWRFGNYWGQGTQVTVSS
polyreactivity (PSR sort gate): low polyreactivity

QVQLVESGGGLVQAGGSLRLSCAASVRTFKYYAMGWYRQAPGKERELVASISRGGGSTYYADSVKGRFTISRDNAKNTVYLQMNSLKPDDTAVYYCAAYLRTRYIYCGQGTQVTVSS
polyreactivity (PSR sort gate): high polyreactivity

QVQLVESGGGLVQAGGSLRLSCAASVRTFLYNAMGWYRQAPGKERELVASITTSGGSTYYADSVKGRFTISRDNAKNTVYLQMNSLKPEDTAVYYCAAGLPKWYDYGRLVKYNYWGQGTQVTVSS
polyreactivity (PSR sort gate): low polyreactivity

QVQLVESGGGLVQAGGSLRLSCAASVRTFYFYTMGWYRQSPGKERELVATIRWSAGSTYYADSVKGRFTISRDNAKNTVYLQMNSLKPEDTAVYYCNADPFVYSSWQYGYWGQGTQVTVSS
polyreactivity (PSR sort gate): high polyreactivity

QVQLVESGGGLVQAGGSLRLSCAASVRTQPRYAMGRYRQAPGKERDLVAAISRSGGSTHYADSVKGRFTISRDNAKNTVYFQMNSLKPEDTAVYYCATQRYPYRFYAFQYYYWGQGTQVTVSS
polyreactivity (PSR sort gate): high polyreactivity

QVQLVESGGGLVQAGGSLRLSCAASVSIFDLYAMRWYIQAPGKERELVAAISWSDSRTYYADSVKGRFTISRDNATNTVYLQKNSLKPEDTAVYYCAADYRYPDNYGGYDYWGQGTQLTVSS
polyreactivity (PSR sort gate): low polyreactivity
